Measured values published in patent US20200011878A1 (published 2020).
Residue numbers refer to the chain shown, from its start.

B1: 1A03 anti-NRP1 IgG antibody (antibody, V domains shown)
VH: EVQLLESGGGLVQFGGSLRLSQAASGFTFSSYYMSWVRQAFGKGLEWVSAISFGSSNKYYADSVQGRFTISRDNSKNTLYLQMNELRAEDTAVYYCARRKKSFDYWGQGTLVTVSS
VL: QSVLTQFFSASGTPGQRVTISCSGFSSNIGNNDVSWYQQLFGTAPKLLIYSCNNRPSGVPDRFSGSKSGTSASLAISGLRSSDEADYYCGAWVASLSAYVFGGGTKLTVTL
B2: IRCR-101 (3H10 converted into IgG format) (antibody, V domains shown)
VH: B1 VH with G15Q, G16Q, G26Q, F53P, Q65K, K101Y, S102M
VL: GSVLTQPPSASGTPGQRVTISCTGESSNIGNNDVYWYQQLPGTAFKLLIYSQSNRPSGMPDRFSGSKSGTSASLAISGLRSEDEADYYCASWDSSLSGYVFGGGTKLTVTL

Molecular target: human NRP1 protein (human, UniProt O14786 22-856)
Experiment: ELISA

Row | Binder | Kd [nM]
1 | B1 | 1110
2 | B2 | 426
